Test results as given in the nanobody polyreactivity screen of Harvey et al. (2022).

Test: yeast display, Sf9 membrane polyspecificity reagent, FACS + sequencing; frameworks hold sequencing errors
In short: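 Galactose induction of a Saccharomyces cerevisiae BJ5465 synthetic nanobody display library ran 36–48 hours. The cells were then stained for 1 hour at 4 °C with 10% biotinylated, detergent-solubilized Sf9 membrane reagent, pulled down on streptavidin microbeads and FACS-sorted into low and high (top ~1%) gates on expression and reagent-binding fluorescence. Labels for polyreactivity follow the gate of origin.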

Row | Sequence | polyreactivity (PSR sort gate)
1 | QVQLVESGGGLVQAGGSLRLSCAASGFTFIHYGMGWYRQAPGKERELVAAISSRGGRTYYADSVKGRFTISRDNAKNTVYLQMNSLKPEDTAVYYCNRDYAVISYGEYDSWGQGTQVTVSS | high polyreactivity
2 | QVQLVESGGGLVQAGGSLRLSCAASGSIFTNAMGWYRQAPGKERELVAAISSSGGSTYYADSVKGRFTISRDNAKNTVYLQMNSLKPDDTAVYYCAADHYGCRDFWGQGSQVTVSS | low polyreactivity
3 | QVQLVESGGGLVQAGGSLRLSCAASGFTFAYYAMGWYRQAPGKERELVATITSGGRTYYADSVKGRFTISRDNAKNTVYLQMNSLKPEDTAVYYCAAAGKGRYHFRSTMDYWGQGTQVTVSS | high polyreactivity
4 | QVQLVESGGGLVQAGGSLRLSCAASGIIISYYTMGWYRQAPGKERELVAAITGSGGSTYYADSVKGRFTISRDNAKNTVYLQMNSLKPEDTAVYYCAADPSLRQYAYFDYYYWGQGTQVTVSS | low polyreactivity
5 | QVQLVESGGGLVQAGGSLRLICDASGSIFGDYVMGWYSPAPGKERELVAAITSATSTYYADSVKGRFTISRDNAKNTVYLQMNSLKPEDTAVYYCKADATYPLWPNIWYDYDYWGQGTQVTVSS | low polyreactivity
6 | QVQLVESGGGLGQAGGSLRLSCAASGSTFKFYAMGWYRHAPGKERELVATISWTGGSTYYADSVKGRFTISRDNAKNTVYLQTNSLKPEDTAVYYCANRKTSYPVIWYTVNGRHYYWGQGTQVTVSS | low polyreactivity
7 | QVQLVESGGGLVQAGGSLRLSCAASGRTFYGNGMGWYRQAPGKRELVAAISYSGASTYYADSVKGRFTISRDNAKNTVCLLMNSLKPEDTAVYYCAAQPSVYCSLFTRASEDYWGQGTQVTVSS | high polyreactivity
8 | QVQLVESGGGLVQAGGSLRISCAASGSNFSIYAMGWYRQAPGKERELVATNYADSVKGRFTISRDNAKNTVYLQMNSLKPEDTAVDYCAADDLSYFWGDVPGDYWGQGTQVTVSS | low polyreactivity
9 | QVQLVESGGGLVQAGGSLRLICAASGSTFGGNVMGWYRQAPGKERELVAAINWSGGRTYYADSVKGRFTISRDNAKNTVYLQMNSLKPEDTAVYYCAADGGQNGMNYWGQGTQVTVSS | high polyreactivity
10 | QVQLVESGGGLVQAGGSLRLSCAPSGRIFWRYAMGWYRQAPGKERELVAGITYSGGRTYYADSVKGRFTISRDNAKNSVFLQMNSLKPEDSAVYYCAARGYFDALVDYWGQGTQVTVSS | low polyreactivity
11 | QVQLVESGGGLVQAGGSLRLSCAASGITFILNPMGWNRQAPGKEREFVAAISTSGGNTYYADSVKGRFTISRDYAKYTVYLEMNSLKPEDTAVYYCNADWGVVYISYSPEYDYWGHGTQVTVSS | low polyreactivity
12 | QVQLVESGGGLVQAGGSLLLSCAASGFIFPPYDMGWYRQAPGKEMELVAGISDVGTTYYADSVKGRFTISRDNAKNTVYLQMNSLKPEDTAVYYCAAESQGDDQFWTGGYDSWGQGTQVTVSS | low polyreactivity
13 | QVQLVESGGGLVQAGGSLRLSCAASGRIFSYNARGWYRQAPGKERELVAAISSDGSTYYADSVKGRFTISRDNAKNTVYLQMNSRKPEDTAVYYCAARQVLWFDYTTAQVGSYKVNSWGQGTQVTVSS | low polyreactivity
14 | QVQLEESGGGLVQAGGSLRLSCASSGSTFATYAMGWDRQAPGKERELVAGISKRGGRTYYADSLKGRFTISRDNAKNTVYFQMNSLKPEDTAVYYCARYSPYYRVKDYDSWGQGTQVTVSS | high polyreactivity
15 | QVQLVESCGGLVQAGGSLRLSCAASGYIFLYNTMGWYRQAPWKERELVAAISFRAGSTYYADSVKGRFTISRDNAMNTVYLQMNSLKPEDTAVYYCAKRQRYYLYGHDYWGQGTQVTVSS | low polyreactivity
16 | QVQLVESGGGLVQAGGSLRLSCAASGFTIRYYTMGWYRQAPGKERELVAAITWSGGRTYYADSVKGRFTISRDNAKNTVYLQMNSLKPEDTAVYYCAADVTKRASRDYYWGQGTQVTVSS | high polyreactivity
17 | QVQLVESGGGLVQAGGSLRLICAASGRTFPYNAMGWYRQAPGKEREFVAVISKGGGRTYYADSVKGRFTISRDNAKNTVYLQMNSLKPEDTAVYYCAKRIGLTFWGQGTQVTVSS | high polyreactivity
18 | QVQLVESGGGLVQAGGSLRLSCAASGNISPDYGMGWYRQAPGKERELVAVIRWSDDSTYYADSVKGRFTISRDYAKNSVYLQMNSLKPEDTAVYYCSTDDYDAIDLDYWGQGTQVTVSS | low polyreactivity
19 | QVQLVESGGGLVQAGGSLRLSCAASGSIFGSNAMGWYRQAPGKEREFVAAIDWGGTITYYADSVKGRFTISRDNAKNTVYLQMNSLKPEDTAVYYCAADPTYPYGYWGQGTQVTVSS | low polyreactivity
20 | QVQLVESGGGLVQAGGSLRLSCAASGSTFNLYAMGWYRPAPGKERELVAAISRGGSTYYADSVKGRFTISRDNAKNTVYLQMNSLKPEDTAVYYCAARSWYDRYPYYSWGQGTQVTVSS | high polyreactivity
21 | QLQLVESCGVLVQAGGSLRLSCAASGRTHGNNAMGCYRQAPGKERELVAITYRGGSTYYADSVKGRFTISRDNAKNTVYLQMNSLKPEDTAVYYCNVDIISKVDTNKYEYWGQGTQVTVSS | low polyreactivity
22 | QVQLVESGVGLVQAGGSLRLSCAASGSTFTANAMGLYRQAPGKERELVAAISSTGGSTYYADSVKGRFTISRDNEKNTVYLQMNSLKPEDTAVYYCNKDGPYQVITYDYWGQGTKVTVSS | high polyreactivity

Row | Sequence | polyreactivity (PSR sort gate)
23 | QVQLVDSGGGLVQAGGSLRLSCAASGLTFQYKAMGRYRHAPGKERELVATISQSGGSTYYADSVKGRFTISRDNAKNTVYLQMNSLKPEDTAVYYCAADGAWGTASYSVAFDYWGQGTQVTVSS | low polyreactivity
24 | QVQLVESGGGLVQAGGSLRLSCAASGRTFVKYAMGWYRQAPGKERELVAAISWSGGSTYYADSVKGRFTISRDNAKNTVYLQMNSLKPEDTAVYYCAAPSSRGQGRNFDYWGQGTQVTVSS | high polyreactivity
25 | QVQLVESGGGLVQAGGSLRLSCAASGRIFSYNAMGWYRQAPGQERELVAAITTGGSTYYADSVKGRFTISRDNAKNTVYLQMNSLKPEDTAVYYCNKLGYYYDRRYDYWRQGTQVTVSS | high polyreactivity
26 | QVQLVESGGGLVQAGGSLRFSCAASGSIFHYYAMGWYRQAPGKERELVAAISGGSRTKYADSVKGRFTISRDNAKNTVYLQMNSLKPEDTAVYYCAKRYYYPYRYYYWGQGTQVTVSS | high polyreactivity
27 | QVQLVESGGGLVQAGGSLRLSCAASGSTFSRDAMRWYRQPPGKERELVAAISSVGDTYYADSVKGRFTISRDNAKNTVYLQMNSLKPEDTAVYYCGATFVVKGTRFGYWGQGTQVTVSS | high polyreactivity
28 | QVQLVESGGGLVQAGGSLRLTCAASGSIFDKNVMGSYRQAPGKERELVAAISSSGGSTYYADSVKGRFTISRDIAKNTVYLQMNSLKPVDSAVYYCAKVPGRDRADRYWDHYSHDYWGQGTQVTVSS | high polyreactivity
29 | QVQLVESGGGLVQAGGSLRLSCAASGRTFESNAMGWYRQAPGKERELVASITDGGSTNYADSVKGRFTISRDNAKNTVYLQMNSLKPEDSAVYYCNVTKRGSLWSVPDQTYDYWGQGTQVTVSS | low polyreactivity
30 | QVQLVESGGGLVQAGGSLRLSCAASGRIFDGNAMGWYRQAPGKERELVATITRGGRTNYADSVKGRFTISRDNAKNTVYLQMNSLKPEDTAVYYCAAEYTYYTYNLNYWGQGTQVTVSS | low polyreactivity
31 | QVQLVESGGGLVQAGGSLRLSCAASGRIFSRNAMGWSRQAPGKERELVAAISRSGGTTYYADSVKGRFTISRDNAKNTVYLQMISLKPEDTAVYYCAAYFWFYVQYEYWGQGTQVTVSS | high polyreactivity
32 | QVQLVESGGGLVQAGGSLRLICAASGRIFGDNAMGWYRQAPGKERELVAGIRWRADRTYYADSVKGRFTISRDNAKNTFYLQMNSLKPEDTAVYYCAARGGGYYDFDYWGQGTQVTVSS | low polyreactivity
33 | QVQLVESAGGLVQAGASLRLSCDASGRIFPSNAMGWSRQAPGKERELVAAITSSGGSTYYADSVKGRFTISRDYAKNTVYLQMNSLKPEHTAVYYCPARFYSGPGGYTIYYWGQGTQVTVSS | high polyreactivity
34 | QVQLVESGGGLVQAGGSLRLSCAASGSIFTRYAMGWYRQAPGKERELVAAIRTSGGSTYYADSVKGRFTISRDNAKNTVYLQMNSLKPEDTAVYYCARRYYKSNFYYWGQGTQVTVSS | high polyreactivity
35 | QVQLVESGGGLVQAGGSLRLSCAASGLTFGYNAMGWYRQAPGKERELVAAISSNGGRTYYADSVKGRFTISRDNAKNTVYLQMNSLKPEDTAVYYCNVVYSRSRPYDYWGQGTQVTVSS | high polyreactivity
36 | QVQLVESGGGLVQAGGSLRLSCAASGIIFDYYAMGWYRQAPGKERELVAAITTSGGRTYYADSVKGRFTISRDNAKNTVNFQMNSLKPEDTAVYYCAASRPSPRPRYGYWGQGTQVTVSS | high polyreactivity
37 | QVQLGESGGGLVQAGGSLRLSCAASGIIFRYYAMAWYRQAPGKERELVAAISSSTGNTYYADSVKGRFTISRDNAKNTVYLQMNSLIPEDTAVYYCAARTRQISIVGYNYWGQGTQVTVSS | high polyreactivity
38 | QVQLVESGVVLVQAGGSLPLSCSASGRIFIHYAMGWYRQAPGKERELVAAISASGGTTNYADSVKGRFTISRDNAKNTVYLQMNSLKPEDTAVYYCAAEGYRSWRGLRSRYYYWGEGTQVTVSS | high polyreactivity
39 | QVQLVESGGGLVQAGGSLRLSCAASGIIFRGNVMGWSRQAPGKERELVAAISGSGGRTYYADSVKGRFTISRDNAKNTVYLQMNSLKPEDTAVYYCNADKAIRYDYWGQGTQVTVSS | high polyreactivity
40 | QVQLVESGGGLVQAGGSLRLSCAASGRIFLYYNMGWYRQAPGKERELVADITWRGGSTYYADSVKGRFTISRDNAKNTVYLQMNSLKPEDTAVYYCNAVSVSSKRSDYWGQGTQVTVSS | low polyreactivity
41 | QLQLVESGGGLGQAGGRLRLSCAASGSTFGRYAKGCYIQAPGKERELVAAITSDTGNTNFADSVKGRLTISRDNAKNTVYLQMNSLKPEDTAVYYCAAATFWVLWGDVIGNYDSWGQGTQVTVSS | low polyreactivity
42 | QVQLVESGGGLVQAGGSLRLSCAASGLTFTSYAMGWYRQAPGKERELVAAIDWSGGRTYYADSVKGRFTISRDNAKNTVYLQMNSLKPEDTAVYYCAAYSRNRALRFNYWGQGTQVTVSS | high polyreactivity
43 | QVQLVESGGGLVQAGGSLRLSCAASGGIFALNDMGWYRQAPGKERELVAAINGAGTYYADSVKGRFTISRDNAKNTVYLQMNSLKPEETAVYYCARRWLHWEYARTWTRVEYDYWGQGTQVTVSS | low polyreactivity
